Source: the supplement of paper PMC9170038

Test system: MS2 coat protein
Test: apparent KD of MS2 coat protein; designed switch direction (-1 OFF switch, 1 ON switch): 1; higher = weaker reporter binding
Summary of the method: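 SNAP-549-labelled MS2 coat protein was titrated, doubling from 0.7 or 1.5 nM to 3 µM, over designed RNA switches transcribed on Illumina chips by stalled E. coli RNA polymerase. Runs were done without input, with 200 uM small-molecule ligand, or with an oligonucleotide input. Apparent KD is the per-design median over clusters of curve-fitted normalised fluorescence.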

[1] = Eterna round: R95, input ligand: FMN 200 uM
[2] = Eterna round: R95, input ligand: microRNA oligo, concentration not stated
[3] = Eterna round: R95, input ligand: none
[4] = input ligand: microRNA oligo, concentration not stated

Sequence | apparent KD of MS2 coat protein [1] [nM] | apparent KD of MS2 coat protein [2] [nM] | apparent KD of MS2 coat protein [3] [nM] | apparent KD of MS2 coat protein (input ligand: FMN 200 uM) [nM] | apparent KD of MS2 coat protein [4] [nM] | apparent KD of MS2 coat protein (input ligand: none) [nM]
CGUUCUUACUCAGGACGGAGAGUAGAGGAACAUGAGGAUCACCCAUGUAUGAGCUUUUUGCUCGUGAUUAACAGUAG [JR_SHM208a_Sub013] (puzzle: Sensor for hsa-mir-208a) | 62.7 | 95.4 | 122 | – | – | –
ACAUGAGACUUAGGAUAUGUUGUACCUACAUGUGACAUGAGGAUCACCCAUGUGGUAAGUAUGAUACAGAAGGAAGAGAUAUGU [Equivalance 66 - Jieux - Same State NG 2] (Eterna round: R96, puzzle: Same State NG 2) | – | – | – | 17.2 | 27.5 | 42.9
GGAGCCGGCCUAGGAUAUUUCAUAAAAAAACAUGAGGAUCACCCAUGUAGGCCAGAAGGCCUUGGGAAGAAGGAGGUCGGCUCC [Loop Effect - Control] (Eterna round: R96, puzzle: Same State NG 2) | – | – | – | 8.94 | 11.9 | 21.3
GUGUGUUGCGGGCAGGAUAUGUACUUGAGUACAUGAGGAUCACCCAUGUGCGCCUGUUUCAGGCGACAGAAGGGCCUAUCGCGAC [JL-ss2-3.26 ViennaUCT mod] (puzzle: Same State 2) | 121 | 318 | 1340 | – | – | –
UCUCGGCACGCAGGAUAUCCCGCUUCCUGGUGAGGAGAAGGGUGGUCGGGAAAACAUGAGGAUCACCCAUGUAAAAGUAAGAGG [Usdidige] (Eterna round: R96, puzzle: Same State NG 1) | – | – | – | 41.6 | 61.3 | 183
GAGUUACAUGAGGAUCACCCAUGUUGUUUUGGAUAAGGAUAUAUGGUAGGAAGAGGAAUGAUAGAAGGUAUUAGGG [JR_SS1_Sub063] (Eterna round: R96, puzzle: Same State 1) | – | – | – | 41.6 | 26.8 | 35.3
AUACAUGAGGAUCACCCAUGUAAUUAAUUAACUUGUAAGAUCAAGGAUAUCAGCUCGAAUAGAGCUGAGAAGGUGAUCACAUGU [SSNG3/21-C1] (Eterna round: R96, puzzle: Same State NG 3) | – | – | – | – | 105 | –
AUAAAACAUGAGGAUCACCCAUGUAAAAAUAUGGGAGGAUAUGCGAAAUAAAAUAAAUAAGCAGAAGGCCUAAAAA [SS! MT 19] (Eterna round: R96, puzzle: Same State 1) | – | – | – | 21.1 | 52.8 | 62.7
CUCAAAACAAGCUGCAGUGUUCGUCUUUAACAUGAGGAUCACCCAUGUAGUAGCCCGGUGGAAGCGCUCGGGCCACC [Antetera] (puzzle: Sensor for hsa-mir-208a) | 44.3 | 27.8 | 43.9 | – | – | –
CUGACUUGUCAAGGAUAUCACGUCGAUUAGACGUGAGAAGGUGAUCUACACAUGAGGAUCACCCAUGUGUUACGUGGGAGUCAG [Brourd's SSNG1/1-A2 mod 20] (Eterna round: R96, puzzle: Same State NG 1) | – | – | – | 34.8 | 69 | 94.7
GUUACAUGAGGAUCACCCAUGUAUGUGUGGGAGUAAGUGUCUUAGGAUAUCUAUGAUUGAAUUUAAGAGAAGGAAGAUUGUUGU [JMF's solution 77] (Eterna round: R96, puzzle: Same State NG 3) | – | – | – | 103 | 83.8 | 90.6
GAAUAGUUGAGAGGAUAUCUAUUAUUGUAGGAUAGAGAAGGUUUUAACAUGAGGAUCACCCAUGUAGGACUAUAUAUGUGAAUA [Parity 99 - Jieux - Same State NG 1] (Eterna round: R96, puzzle: Same State NG 1) | – | – | – | 14.2 | 12.5 | 15.3
GCUACGGACGUAGGAUAUGUAGGAUAUGGCGAGAGCUAAGCUUGGAAGUCACUUCAGCCAGAAGGACAGAAGGACGCCGUGAGG [pwkr ssNG2 2FMN + F9.17] (Eterna round: R96, puzzle: Same State NG 2) | – | – | – | 355 | 1.34 | 29.5
UGUUAACAUGAGGAUCACCCAUGUCAAAAGAAUCGAGGAUAUGGUAAGUAAUAAGAGAAUCUAGAAGGCGAAGUUG [Altered State 1-24 - Jieux - Same State 1] (puzzle: Same State 1) | 42.7 | 55.9 | 60.9 | – | – | –
GAGUUACAUGAGGAUCACCCAUGUUGUUUUGGAUAAGGAUAUAUGGUAGGAAGAGGAAUGAUAGAAGGUAUUAGGG [JR_SS1_Sub063] (puzzle: Same State 1) | – | 25.3 | – | – | – | –
CGUCCGGCCUGUGCUGGCCGGUAGCAUGUACAUGAGGAUCACCCAUGUUCAUGUGCAGGCUUUUUGCUCGUCUUGUG [salish99_mir208a_r3_007] (puzzle: Sensor for hsa-mir-208a) | 34 | 12.3 | 33.8 | – | – | –

Sequence | apparent KD of MS2 coat protein [1] [nM] | apparent KD of MS2 coat protein [2] [nM] | apparent KD of MS2 coat protein [3] [nM] | apparent KD of MS2 coat protein (input ligand: FMN 200 uM) [nM] | apparent KD of MS2 coat protein [4] [nM] | apparent KD of MS2 coat protein (input ligand: none) [nM]
UUGAAGAAUUAAGGAUAUCGAGUCGUCUAAUUAAACAUGAGGAUCACCCAUGUGGGUUGCGGUAUCGAGAAGGUAAAUUACUAG [JL JR Sub099 mod 3] (Eterna round: R96, puzzle: Same State NG 2) | – | – | – | 25.2 | 22.8 | 37
GAGUCAGAUCGAGGAUAUUUGUUAUGACGAUCCCACAUGAGGAUCACCCAUGUCCACGAUCCUCCAAAGAAGGUGAGGCUGGCG [Eternabot solution 32] (Eterna round: R96, puzzle: Same State NG 2) | – | – | – | 202 | 39.6 | 88.2
GGAGCCGGCACCGAGGAUAUUCGUAUUAAAACAUGAGGAUCACCCAUGUAGGCCAGAAGGCCUUGGGAGAAGGCGGAUCGGCUCG [Xeonanis - 2] (puzzle: Same State 2) | 12.4 | 65.2 | 106 | – | – | –
AACCGCGCAGAUGCGCGACAUGAGGAUCACCCAUGUGGCACACAGGAUAUCCUGAACAGCUAUUAGGAGAAGGGUGAAGGCCUC [Oredceti] (Eterna round: R96, puzzle: Same State NG 3) | – | – | – | 339 | 45.1 | 127
CAGCGCUGUUGAGAGGAUAUGCGGUGAUGGACAUGAGGAUCACCCAUGUUAGCGAUAGCAUUACGGUAGAAGGCUCUACAGCUGC [Soteed Omei mod 3] (puzzle: Same State 2) | – | 14 | – | – | – | –
AUUAAACAUGAGGAUCACCCAUGUCAACAAAGUCGAGGAUAUGGGCAAAUAAAAUAAGAACCAGAAGGCGACUAAU [salish99_ss1_r3_071] (puzzle: Same State 1) | – | 22.3 | – | – | – | –
UGUACCUUCAUAGGAUAUCAUGCGAAAAUUGCGUGAGAAGGGUGAAUACUGUCUUUCUAAGAGUACAUGAGGAUCACCCAUGUA [SameState NG1 #62] (Eterna round: R96, puzzle: Same State NG 1) | – | – | – | 181 | 133 | 152
GUUAACUUGAGAGGAUAUGUAGAGGAUCACCCUACAGAAGGCUCUUUGGAGAGGAUAUGUAGAGGAUCACCCUACAGAAGGCUC [pwkr ssNG DX.6] (Eterna round: R96, puzzle: Same State NG 1) | – | – | – | 56.5 | 33.7 | 25.9
CCAGGACAUGAGGAUCACCCAUGUGCUUAAUGUGGAGAAUCUCAGGAUAUCAUGAGGAUCACCCAUGAGAAGGGAGAUCCGAGG (Eterna round: R96, puzzle: Same State NG 3) | – | – | – | 573 | 234 | 398
GCCACACAUGAGGAUCACCCAUGUAAUUACAUGGGAGGAUAUCAGUGCUCGAAAGAGCACUGAGAAGGCCUGUGGC [SS1 - Omei A v3] (puzzle: Same State 1) | 134 | 89.6 | 67.8 | – | – | –
GAGUAGUCAAAAGGAUAUUGAUUAUUGUAGGAUCAAGAAGGUUUUAACAUGAGGAUCACCCAUGUAGGACUAUUCCUGUGUAUC [Parity 91 - Jieux - Same State NG 1] (Eterna round: R96, puzzle: Same State NG 1) | – | – | – | – | 10.8 | –
UUGGUACAUGAGGAUCACCCAUGUGGGUCGGUCGCAGGAUAUGCCCGUGGGCGCUUGCGGGCAGAAGGGUGCCGUA [Same State1-X] (Eterna round: R96, puzzle: Same State 1) | – | – | – | 173 | 386 | 1000
AUAAAACAUGAGGAUCACCCAUGUCAACAAAGUCGAGGAUAUGGGCAAAUAAAAGAAUAACCAGAAGGCGAAUAAU [salish99_ss1_r3_053] (puzzle: Same State 1) | 46 | 283 | 481 | – | – | –
GCACAUGCACAUGAGGAUCACCCAUGUCCCGCGCCCAUUAGGGCGCGGUGGCCGCAAGUUUUUUGCUCGUCUUAUAA [BIOPHYS241_ElaineNg_2] (puzzle: Sensor for hsa-mir-208a version 2) | 29.4 | 21.3 | 38.8 | – | – | –
AGCUAUUACGAAGGAUAUUGUAACAUGAGGAUCACCCAUGUUUACAUGAUUAAUUGUGAUCACGUCGAGAAGGUUGUACUAACA [SameState NG2 #33] (Eterna round: R96, puzzle: Same State NG 2) | – | – | – | 17.5 | 16.5 | 19
GUUACAUGAGGAUCACCCAUGUAUGUGUGGGAGUAAGUGUCUUAGGAUAUCUAUGAUUUAAGUUAAGAGAAGGAAGAUUGUUGU [JMF's solution 80] (Eterna round: R96, puzzle: Same State NG 3) | – | – | – | 118 | 89.5 | 114
